Key:
Assay in all cases: cell-based or functional assay
[1] = target: T1, SARS-CoV-2 Spike, Alpha variant (SARS-CoV-2, UniProt P0DTC2 14-1273)
[2] = target: T2, SARS-CoV-2 Spike, Beta variant (SARS-CoV-2, UniProt P0DTC2 14-1273)
[3] = target: T3, SARS-CoV-2 Spike, Gamma variant (SARS-CoV-2, UniProt P0DTC2 14-1273)
[4] = target: T4, SARS-CoV-2 Spike, Delta variant (SARS-CoV-2, UniProt P0DTC2 14-1273)
[5] = target: SARS-CoV-2 Spike, Kappa variant (SARS-CoV-2, UniProt P0DTC2 14-1273)
[6] = target: SARS-CoV-2 Spike, Lambda variant (SARS-CoV-2, UniProt P0DTC2 14-1273)
[7] = target: SARS-CoV-2 Spike, Epsilon variant (SARS-CoV-2, UniProt P0DTC2 14-1273)
[8] = target: SARS-CoV-2 Spike, Eta variant (SARS-CoV-2, UniProt P0DTC2 14-1273)
[9] = target: SARS-CoV-2 Spike, Iota variant (SARS-CoV-2, UniProt P0DTC2 14-1273)
[10] = target: SARS-CoV-2 Spike, Zeta variant (SARS-CoV-2, UniProt P0DTC2 14-1273)
[11] = target: T1, SARS-CoV-2 Spike, Alpha variant; remark: listed apart in the source
[12] = target: T2, SARS-CoV-2 Spike, Beta variant; remark: listed apart in the source
[13] = target: T3, SARS-CoV-2 Spike, Gamma variant; remark: listed apart in the source
[14] = target: T4, SARS-CoV-2 Spike, Delta variant; remark: listed apart in the source

B1: MR22950 antibody (antibody, V domains shown)
VH: QLQLQESGPGLVKPSEPLSLTCAVSGGFIGTNWWTWIRQPPGKGLEWIGRISGSVGSTSYNPSLKSRVTISRDTSKNQFSLNLNSLTAADTAVYYCAREGRLDTLDWGQGVLVIVSS
VL: QSVLTQPPSASEAARKSVTISCSGSSSNIGSYSVSWYQQFPGTPPKLLIYFNDQRASGVSDRFSGSKSGTSASLAISGLQTEDEADYYCAGWDDSLNGVLFGGGTRLTVLG
[1]
  Neut50: 7.3 ng/mL
[2]
  Neut50: 33 ng/mL
[3]
  Neut50: 105 ng/mL
[4]
  Neut50: 7.8 ng/mL
[5]
  Neut50: 15 ng/mL
[6]
  Neut50: 19 ng/mL
[7]
  Neut50: 10.8 ng/mL
[8]
  Neut50: 16 ng/mL
[9]
  Neut50: 0.5 ng/mL
[10]
  Neut50: 3.8 ng/mL
[11]
  Neut50 (ng/mL), authentic live virus, plaques on Vero cells: 4.7 ng/mL
[12]
  Neut50 (ng/mL), authentic live virus, plaques on Vero cells: 6.9 ng/mL
[13]
  Neut50 (ng/mL), authentic live virus, plaques on Vero cells: 12.7 ng/mL
[14]
  Neut50 (ng/mL), authentic live virus, plaques on Vero cells: 20.3 ng/mL

— patent US20240327504A1 (MABLOC, published 2024)
